Measured values: patent publication US20200165325A1

How the values were obtained:
[1] = target: HIV-1 Env of strain T251-18 (HIV-1)
[2] = target: HIV-1 Env of strain 3016.v5.c45 (HIV-1)
[3] = target: HIV-1 Env of strain C3347.c11 (HIV-1)
[4] = target: HIV-1 Env of strain QH0692.42 (HIV-1)
[5] = target: HIV-1 Env of strain Q259.d2.17 (HIV-1)
[6] = target: HIV-1 Env of strain T250-4 (HIV-1)
[7] = target: HIV-1 Env of strain Ce2060_G9 (HIV-1)
[8] = target: HIV-1 Env of strain Ce1176_A3 (HIV-1)
[9] = target: HIV-1 Env of strain 703357.C02 (HIV-1)
[10] = target: HIV-1 Env of strain ZM249M.PL1 (HIV-1)
[11] = target: HIV-1 Env of strain X2131_C1_B5 (HIV-1)
[12] = target: HIV-1 Env of strain 62357_14_D3_4589 (HIV-1)
[13] = target: HIV-1 Env of strain 231966.c02 (HIV-1)
[14] = target: HIV-1 Env of strain 3301.v1.c24 (HIV-1)
[15] = target: HIV-1 Env of strain 6540.v4.c1 (HIV-1)
[16] = target: HIV-1 Env of strain ZM233M.PB6 (HIV-1)
[17] = target: HIV-1 Env of strain Q769.d22 (HIV-1)

Substance	In vitro neutralization IC80 [1] [µg/mL]	In vitro neutralization IC80 [2] [µg/mL]	In vitro neutralization IC80 [3] [µg/mL]	In vitro neutralization IC80 [4] [µg/mL]	In vitro neutralization IC80 [5] [µg/mL]	In vitro neutralization IC80 [6] [µg/mL]	In vitro neutralization IC80 [7] [µg/mL]	In vitro neutralization IC80 [8] [µg/mL]	In vitro neutralization IC80 [9] [µg/mL]	In vitro neutralization IC80 [10] [µg/mL]	In vitro neutralization IC80 [11] [µg/mL]	In vitro neutralization IC80 [12] [µg/mL]	In vitro neutralization IC80 [13] [µg/mL]	In vitro neutralization IC80 [14] [µg/mL]	In vitro neutralization IC80 [15] [µg/mL]	In vitro neutralization IC80 [16] [µg/mL]	In vitro neutralization IC80 [17] [µg/mL]
NIH45-46 G54F IgG (antibody)	1.38	37	0.059	1.65	0.036	> 50	0.085	0.83	> 50	0.016	0.41	0.14	0.24	0.011	> 50	0.99	0.023
NIH45-46 G54W IgG (antibody)	0.92	15.4	0.028	1.12	0.014	44.9	0.042	0.45	17.6	0.007	0.24	0.07	0.11	0.004	> 50	0.11	0.009
NIH45-46 G54Y IgG (antibody)	1.16	> 50	0.052	1.5	0.034	> 50	0.068	0.58	30.6	0.011	0.39	0.09	0.23	0.014	> 50	0.78	0.024
